From article PMC9352680, “A comprehensive thermodynamic model for RNA binding by the Saccharomyces cerevisiae Pumilio protein PUF4”

Biological target: T1, PUF4 RNA-binding domain (Saccharomyces cerevisiae, UniProt P25339 537-888)
T1 sequence: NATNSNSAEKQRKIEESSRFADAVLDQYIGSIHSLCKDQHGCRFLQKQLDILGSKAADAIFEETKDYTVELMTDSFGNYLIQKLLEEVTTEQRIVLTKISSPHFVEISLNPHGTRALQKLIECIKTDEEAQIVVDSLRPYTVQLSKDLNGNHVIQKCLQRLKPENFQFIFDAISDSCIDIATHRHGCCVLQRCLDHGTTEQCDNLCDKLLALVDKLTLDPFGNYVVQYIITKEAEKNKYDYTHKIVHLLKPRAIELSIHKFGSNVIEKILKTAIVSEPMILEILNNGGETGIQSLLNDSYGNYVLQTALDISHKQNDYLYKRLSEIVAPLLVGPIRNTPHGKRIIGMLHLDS
Assay: Mg; RNA-MaP; 20 mM Na-HEPES pH 7.4, 30 mM KOAc, 0.75 mM MgCl2, 0.1% Tween-20, 5% glycerol, 0.1 mg/mL BSA, 2 mM DTT; 25 C; 0.0125-409.6 nM protein
Details: tags: N-His6-TEV cleaved; C-SNAP kept, Cy3B-labelled; label: tethered on chip by stalled RNA polymerase

**Q.** UCUCUUCUUGUCCAUAUAUAUCUCUU (ssRNA) [Ie_S1_P3E.2_K3.1_C3.2_H3.1_[+3CC]_A3.1_F3.1_T3.2] was tested. Which Kd did it give?
**A.** 822 nM

**Q.** How did the Kd turn out when UCUCUUCUUGUUCAUAUAUAUCUCUU (ssRNA) [Ie_S1_P3E.2_K3.1_C3.2_H3.1_[+3TC]_A3.1_F3.1_T3.2] was run?
**A.** 98.7 nM

B1: Ic_S2_P3E.1_K3.1_C3.1_H3.1_A3.1_F3.1_[A8T]_T3.1 (ssRNA)
RNA: UUUGAUUAAUAUGAUAUCGUUCUUUCUUGUAUAUUUUCUUUCUCGAUAUCAUAUUAAUCUUU
**Q.** Which Kd does the source give for B1 here?
**A.** 1.67 nM

**Q.** For UCUCUUUGUAUGCUUAUCUCUU (ssRNA) [Ic_S1_P5E.1_K5.1_C5.1_H5.1_A5.1_[T6G]_[A7C]_F5.1_T5.1], which Kd is on record?
**A.** 32 nM

**Q.** UCUCUUCUUGUCCCAUAUAUAUCUCUU (ssRNA) [Ie_S1_P3E.2_K3.1_C3.2_H3.1_[+3CCC]_A3.1_F3.1_T3.2] was tested. Which Kd did it give?
**A.** 64.7 nM

**Q.** Which Kd does the source give for UCUCUUCUUGUUCCAUAUAUAUCUCUU (ssRNA) [Ie_S1_P3E.2_K3.1_C3.2_H3.1_[+3TCC]_A3.1_F3.1_T3.2] here?
**A.** 26.1 nM

**Q.** Which Kd does the source give for UCUCUUCUUGUCCUCAUAUAUAUCUCUU (ssRNA) [Ie_S1_P3E.2_K3.1_C3.2_H3.1_[+3CCTC]_A3.1_F3.1_T3.2] here?
**A.** 798 nM

**Q.** Which Kd does the source give for UCUCUUCUUGUUUCCAUAUAUAUCUCUU (ssRNA) [Ie_S1_P3E.2_K3.1_C3.2_H3.1_[+3TTCC]_A3.1_F3.1_T3.2] here?
**A.** 69.3 nM

**Q.** For UCUCUUCUUGUCCCUAUAUAUAUCUCUU (ssRNA) [Ie_S1_P3E.2_K3.1_C3.2_H3.1_[+3CCCT]_A3.1_F3.1_T3.2], which Kd is on record?
**A.** 454 nM

**Q.** With UCUCUUCUUGUUCUCUAUAUAUAUCUCUU (ssRNA) [Ie_S1_P3E.2_K3.1_C3.2_H3.1_[+3TCTCT]_A3.1_F3.1_T3.2] as the binder, how does the Kd read?
**A.** 68.4 nM

**Q.** Which Kd does the source give for UCUCUUCUUGUCCUCUAUAUAUAUCUCUU (ssRNA) [Ie_S1_P3E.2_K3.1_C3.2_H3.1_[+3CCTCT]_A3.1_F3.1_T3.2] here?
**A.** 139 nM

**Q.** With UCUCUUCUUGUUUCCUAUAUAUAUCUCUU (ssRNA) [Ie_S1_P3E.2_K3.1_C3.2_H3.1_[+3TTCCT]_A3.1_F3.1_T3.2] as the binder, how does the Kd read?
**A.** 106 nM

**Q.** With UCUCUUCUUGUACUAUAUAUCUCUU (ssRNA) [Ie_S1_P3E.2_K3.1_C3.2_H3.1_[+4C]_A3.1_F3.1_T3.2] as the binder, how does the Kd read?
**A.** 1.5 nM

**Q.** With UCUCUUCUUGUAUUAUAUAUCUCUU (ssRNA) [Ie_S1_P3E.2_K3.1_C3.2_H3.1_A3.1_[+5T]_F3.1_T3.2] as the binder, how does the Kd read?
**A.** 2.15 nM

**Q.** Which Kd does the source give for UCUCUUUGUAUCGUUAUCUCUU (ssRNA) [Ib_S1_P5E.1_K5.1_C5.1_H5.1_A5.1_[T6C]_[A7G]_F5.1_T5.1] here?
**A.** 14.4 nM

**Q.** Which Kd does the source give for UCUCUUCUUGUACCUAUAUAUCUCUU (ssRNA) [Ie_S1_P3E.2_K3.1_C3.2_H3.1_[+4CC]_A3.1_F3.1_T3.2] here?
**A.** 17.6 nM

**Q.** For UCUCUUCUUGUACUUAUAUAUCUCUU (ssRNA) [Ie_S1_P3E.2_K3.1_C3.2_H3.1_[+4CT]_A3.1_F3.1_T3.2], which Kd is on record?
**A.** 6.52 nM

**Q.** With UCUCUUCUUGUACCCUAUAUAUCUCUU (ssRNA) [Ie_S1_P3E.2_K3.1_C3.2_H3.1_[+4CCC]_A3.1_F3.1_T3.2] as the binder, how does the Kd read?
**A.** 8.38 nM

**Q.** With UCUCUUCUUGUACUCUAUAUAUCUCUU (ssRNA) [Ie_S1_P3E.2_K3.1_C3.2_H3.1_[+4CTC]_A3.1_F3.1_T3.2] as the binder, how does the Kd read?
**A.** 3.95 nM

**Q.** Which Kd does the source give for UCUCUUCUUGUACUCUUAUAUAUCUCUU (ssRNA) [Ie_S1_P3E.2_K3.1_C3.2_H3.1_[+4CTCT]_A3.1_F3.1_T3.2] here?
**A.** 9.53 nM

**Q.** How did the Kd turn out when UCUCUUCUUGUACCUCUAUAUAUCUCUU (ssRNA) [Ie_S1_P3E.2_K3.1_C3.2_H3.1_[+4CCTC]_A3.1_F3.1_T3.2] was run?
**A.** 12.4 nM

**Q.** UCUCUUCUUGUACUCUCUAUAUAUCUCUU (ssRNA) [Ie_S1_P3E.2_K3.1_C3.2_H3.1_[+4CTCTC]_A3.1_F3.1_T3.2] was tested. Which Kd did it give?
**A.** 31 nM

**Q.** With UCUCUUCUUGUACCCUUUAUAUAUCUCUU (ssRNA) [Ie_S1_P3E.2_K3.1_C3.2_H3.1_[+4CCCTT]_A3.1_F3.1_T3.2] as the binder, how does the Kd read?
**A.** 20.6 nM

**Q.** Which Kd does the source give for UCUCUUCUUGUAUCAUAUAUCUCUU (ssRNA) [Ie_S1_P3E.2_K3.1_C3.2_H3.1_A3.1_[+5C]_F3.1_T3.2] here?
**A.** 1.6 nM

**Q.** For UCUCUUCUUGUAUCCAUAUAUCUCUU (ssRNA) [Ie_S1_P3E.2_K3.1_C3.2_H3.1_A3.1_[+5CC]_F3.1_T3.2], which Kd is on record?
**A.** 29.9 nM

**Q.** How did the Kd turn out when UCUCUUUGUAUCCUUAUCUCUU (ssRNA) [Ib_S1_P5E.1_K5.1_C5.1_H5.1_A5.1_[T6C]_[A7C]_F5.1_T5.1] was run?
**A.** 9.16 nM

**Q.** How did the Kd turn out when UCUCUUCUUGUAUACUAUAUCUCUU (ssRNA) [Ie_S1_P3E.2_K3.1_C3.2_H3.1_A3.1_[+6C]_F3.1_T3.2] was run?
**A.** 0.878 nM

**Q.** For UCUCUUCUUGUAUAUUCAUAUCUCUU (ssRNA) [Ie_S1_P3E.2_K3.1_C3.2_H3.1_A3.1_F3.1_[+7TC]_T3.2], which Kd is on record?
**A.** 10.3 nM

**Q.** For UCUCUUCUUGUAUAUCCCAUAUCUCUU (ssRNA) [Ie_S1_P3E.2_K3.1_C3.2_H3.1_A3.1_F3.1_[+7CCC]_T3.2], which Kd is on record?
**A.** 37.9 nM

**Q.** How did the Kd turn out when UCUCUUCUUGUAUAUCUCAUAUCUCUU (ssRNA) [Ie_S1_P3E.2_K3.1_C3.2_H3.1_A3.1_F3.1_[+7CTC]_T3.2] was run?
**A.** 24.7 nM
